Measured values published in publication doi:10.1101/626572.

Target: Concanavalin A (Con A) (UniProt P02866;P02866 164-281;30-148)
Assay: particle-based flow cytometry

Sequence of Concanavalin A (Con A) (P02866 164-281, chain 1 of 2): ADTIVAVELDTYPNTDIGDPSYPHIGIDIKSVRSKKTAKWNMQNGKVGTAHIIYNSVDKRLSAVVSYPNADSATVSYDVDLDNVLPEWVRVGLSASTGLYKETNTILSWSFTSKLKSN
Sequence of Concanavalin A (Con A) (P02866 30-148, chain 2 of 2): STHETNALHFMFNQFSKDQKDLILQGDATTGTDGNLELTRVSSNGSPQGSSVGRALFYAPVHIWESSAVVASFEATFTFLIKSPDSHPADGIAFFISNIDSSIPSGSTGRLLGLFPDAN

B1: ConA-3-1n (ssDNA)
DNA: GATCCCAGTCCGAAGTAATCGTTGCATCTGCACGACTGGTGAGCTTGAGTGGCAGAAGAACTTGTGCAAACGGCTATAGG
binding result: no binding
